B1: Example 3 fusion protein (SEQ ID NO:17) (Fc fusion)
chain: FVNQHLCGSHLVEALELVCGERGFHYGGGGGGSGGGGGIVEQCCTSICSLDQLENYCGGGGGQGGGGQGGGGQGGGGQGGPCPPCPAPEAAGGPSVFLFPPKPKDTLMISRTPEVTCVVVDVSQEDPEVQFNWYVDGVEVHNAKTKPREEQFNSTYRVVSVLTVLHQDWLNGKEYKCKVSNKGLPSSIEKTISKAKGQPREPQVYTLPPSQEEMTKNQVSLTCLVKGFYPSDIAVEWESNGQPENNYKTTPPVLDSDGSFFLYSRLTVDKSRWQEGNVFSCSVMHEALHNHYTQKSLSLSLG
B2: Example 5 fusion protein (SEQ ID NO:19) (Fc fusion)
chain: FVNQHLCGSHLVEALELVCGERGFHYGGGGGGSGGGGGIVEQCCTSTCSLDQLENYCGGGGGQGGGGQGGGGQGGGGQGGPCPPCPAPEAAGGPSVFLFPPKPKDTLMISRTPEVTCVVVDVSQEDPEVQFNWYVDGVEVHNAKTKPREEQFNSTYRVVSVLTVLHQDWLNGKEYKCKVSNKGLPSSIEKTISKAKGQPREPQVYTLPPSQEEMTKNQVSLTCLVKGFYPSDIAVEWESNGQPENNYKTTPPVLDSDGSFFLYSRLTVDKSRWQEGNVFSCSVMHEALHNHYTQKSLSLSLG
B3: Example 1 fusion protein (SEQ ID NO:12) (Fc fusion)
chain: FVNQHLCGSHLVEALELVCGERGFHYGGGGGGSGGGGGIVEQCCTSTCSLDQLENYCGGGGGQGGGGQGGGGQGGGGGECPPCPAPPVAGPSVFLFPPKPKDTLMISRTPEVTCVVVDVSHEDPEVQFNWYVDGVEVHNAKTKPREEQFNSTFRVVSVLTVVHQDWLNGKEYKCKVSNKGLPAPIEKTISKTKGQPREPQVYTLPPSREEMTKNQVSLTCLVKGFYPSDIAVEWESNGQPENNYKTTPPMLDSDGSFFLYSKLTVDKSRWQQGNVFSCSVMHEALHNHYTQKSLSLSPG
B4: Example 9 fusion protein (SEQ ID NO:23) (Fc fusion)
chain: FVNQHLCGSHLVEALELVCGERGFFYTEETGGGGGGGIVEQCCTSICSLYQLENYCGGGGGSGGGGSGGGGSGGGGSECPPCPAPPVAGPSVFLFPPKPKDTLMISRTPEVTCVVVDVSHEDPEVQFNWYVDGVEVHNAKTKPREEQFNSTFRVVSVLTVVHQDWLNGKEYKCKVSNKGLPAPIEKTISKTKGQPREPQVYTLPPSREEMTKNQVSLTCLVKGFYPSDIAVEWESNGQPENNYKTTPPMLDSDGSFFLYSKLTVDKSRWQQGNVFSCSVMHEALHNHYTQKSLSLSPG

Target: T1, human insulin receptor isoform A (human, UniProt P06213-2 28-1370)
T1 construct: whole, on cells; Tested as P1 membrane preparations of the over-expressing cells; also called hIR-A
Assay: competitive radio-ligand binding, [125I]-insulin, membranes of 293EBNA cells over-expressing hIR-A
Description: IC₅₀ values are determined from 4-parameter logistic non-linear regression analysis (XLFit version 4.0, IDBS). If necessary, curve top or bottom parameters are set to 100 or 0, respectively.
Reported values for Kᵢ are shown as geometric mean±the standard error of the mean (SEM), with the number of replicate determinations indicated by “n” (Table 1).

| Binder | Ki |
| --- | --- |
| B1 | 10.1 nM |
| B2 | 35.6 nM |
| B3 | 24.9 nM |
| B4 | 3.74 nM |

Reference: patent US20250032588A1 (Eli Lilly, published 2025)
